# Test results taken from patent publication US20140357845A1 (published 2014).
# B1: CR9114 (antibody, V domains shown)
# VH: QVQLVQSGAEVKKPGSSVKVSCKSSGGTSNNYAISWVRQAPGQGLDWMGGISPIFGSTAYAQKFQGRVTISADIFSNTAYMELNSLTSEDTAVYFCARHGNYYYYSGMDVWGQGTTVTVSS
# VL: SYVLTQPPAVSGTPGQRVTISCSGSDSNIGRRSVNWYQQFPGTAPKLLIYSNDQRPSVVPDRFSGSKSGTSASLAISGLQSEDEAEYYCAAWDDSLKGAVFGGGTQLTVL
# How the values were obtained:
# [1] = target: mini-H3 cluster1 + 2 + 3 + 4 + 5 + 6 + 7-N405D (influenza A virus H3N2, UniProt Q38SQ8 18-566); experiment: FACS
# [2] = target: mini-H3 cluster1 + 2 + 3 + 4 + 5 + 6 + 7-N405A (influenza A virus H3N2, UniProt Q38SQ8 18-566); experiment: FACS
binder,measurement,setting,value
B1,binding result,[1],no binding (tested: 5 microgram/ml)
same,binding result,[2],no binding (tested: 5 microgram/ml)
